Measured values from US20060026702A1, “Phosphoinositide 3-kinase mediated inhibition of GPCRs” (DUKE UNIVERSITY, priority 2002, published 2006).

B1: βARKct: carboxyl terminus of βARK1 that attenuates the Gβγ dependent signaling (protein)
chain: GIKLLDSDQELYRNFPLTISERWQQEVAETVFDTINAETDRLEARKKTKNKQLGHEEDYALGKDCIMHGYMSKMGNPFLTQWQRRYFYLFPNRLEWRGEGEAPQSLLTMEEIQSVEETQIKERKCLLLKIRGGKQFVLQCDSDPELVQWKKELRDAYREAQQLVQRVPKMKNKPRSPVVELSKVPLIQRGSANGL
B2: PI3KΔHEAT: HA tagged PI3K mutant with a deletion of the HEAT domain (protein)
chain: MELENYKQPVVLREDNCRRRRRMKPRSAASLSSMELIPIEFVLPTSQRKCKSPETALLHVAGHGNVEQMKAQVWLRALETSVAADFYHRLGPHHFLLLYQKKGQWYEIYDKYQVVQTLDCLRYWKATHRSPGQIHLVQRHPPSEESQAFQRQLTALIGYDVTDVSNVHDDELEFTRRGLVTPRMAEVASRDPKLYAMHPWVTSKPLPEYLWKKIANNCIFIVIHRSTTSQTIKVSPDDTPGAILQSFFTKMAKKKSLMDIPESQSEQDFVLRVCGRDEYLVGETPIKNFQWVRHCLKNGEEIHVVLDTPPDPALDEVRKEEWPLVDDCTGVTGYHEQLTIHGKDHESVFTVSLWDCDRKFRVKIRGIDIPVLPRNTDLTVFVEANIQHGQQVLCQRRTSPKPFTEEVLWNVWLEFSIKIKDLPKGALLNLQIYCGKAPALSSKASAESPSSESKGKVRLLYYVNLLLIDHRFLLRRGEYVLHMWQISGKGEDQGSFNADKLTSATNPDKENSMSISILLDNYCHPIALPKHQPTPDPEGDRGTAMLHDFTQQVQVIEMLQKVTLDIKSLSAEKYDVSSQVISQLKQKLENLQNSQLPESFRVPYDPGLKAGALAIEKCKVMASKKKPLWLEFKCADPTALSNETIGIIFKHGDDLRQDMLILQILRIMESIWETESLDLCLLPYGCISTGDKIGMIEIVKDATTIAKIQQSTVGNTGAFKDEVLNHWLKEKSPTEEKFQAAVERFVYSCAGYCVATFVLGIGDRHNDNIMITETGNLFHIDFGHILGNYKSFLGINKERVPFVLTPDFLFVMGTSGKKTSPHFQKFQDICVKAYLALRHHTNLLIILFSMMLMTGMPQLTSKEDIEYIRDALTVGKNEEDAKKYFLDQIEVCRDKGWTVQFNWFLHLVLGIKQGEKHSAYPYDVPDYA

Tests used:
[1] = molecular target: T1, PI3K (Homo sapiens, UniProt P48736, DEL30-30/Q459R); assay: βARK1 associated PI3K activity (lipid kinase assay) in transfected NIH-3T3 cells; type: cell-based, Mouse; conditions: co-transfected βARKct cDNA
T1 construct: expressed in transfected cells; host or cells: NIH-3T3
Protocol: (§1) Cell Culture—Mouse NIH-3T3 and HEK293 cells were maintained in either Iscoves modified Dulbecco's medium or minimal essential medium (MEM) supplemented with 10% fetal bovine serum and 1:100 penicillin-streptomycin (10,000 U/ml) at 37° C. Cells were seeded at a density of ˜1-3×10^5 cells/35 mm^2 dish and at 70-80% confluence were transiently transfected using the transfection reagent FUGENE6 (ROCHE) or calcium phosphate precipitation. Cells were harvested 24 hours after transfection, re-plated in triplicate, allowed to grow overnight and serum starved for 2-4 hours before agonist stimulation.
(§2) Cytosolic and Membrane Fractionation—Cell monolayers were scraped in 1 ml of buffer containing 25 mM Tris-HCl (pH 7.5), 5 mM EDTA, 5 mM EGTA, 1 mM phenylmethylsulfonyl fluoride, 2 μg/ml each of leupeptin and aprotinin and disrupted further by using Dounce homogenizer. Intact cells and nuclei were removed by-centrifugation at 1,000×g for 5 min. The collected supernatant was further subject to a centrifugation at 38,000×g for 25 min. The pellet was resuspended in lysis buffer (1% Nonidet P-40, 10% glycerol, 137 mM NaCl, 20 mM Tris-Cl (ph 7.4), 1 mM phenylmethylsulfonyl fluoride, 20 mM NaF, 1 mM sodium pyrophosphate, 1 mM sodium orthovanadate and 2 μg/ml each of aprotinin and leupeptin) and used as membrane fraction and the supernatant was diluted in lysis buffer and used as the cytosolic fraction.
(§3) Lipid Kinase Assays—Cells were lysed in lysis buffer and 2 mg cytosolic extract was used for immunoprecipitation with either the C5/1 monoclonal antibody directed against βARK1, the anti-FLAG M2 monoclonal antibody (Sigma) or antibodies to p110γ, or p110β (Santa Cruz Biotechnology) and protein G-agarose. Sedimented beads were then washed once with 1 ml of lysis buffer, thrice with 1 ml of phosphate-buffered saline (1× phosphate-buffered saline, 1% NP-40 and 100 μM sodium orthovanadate), thrice with 1 ml of Tris/LiCl (100 mM Tris-HCl (pH 7.4), 5 mM LiCl and 100 μM sodium orthovanadate) and twice with TNE (10 mM Tris Cl (pH 7.4), 150 mM NaCl, 5 mM EDTA and 100 μM sodium orthovanadate). Samples were then resuspended in 50 ml of TNE and 10 μl of 100 mM MgCl2 was added to each sample. The substrate, phosphatidylinositol (PI, Avanti), was prepared by drying 50 μl of the 10 mg/ml stock (PI in chloroform) in an eppendorf tube with a stream of air and adding 250 μl of TE (10 mM Tris Cl (pH 7.4) and 1 mM EDTA). The PI was then suspended by sonication in an ice bath for 3 minutes. 10 p, of the PI solution and 11 μl of ATP solution (440 μM cold ATP and 1 μCi/μl of [γ-32P]ATP) were added to each sample. […] Autoradiography of dried plates was used to detect signals, and PIP was quantified by phosphorimaging. […] Values are expressed as fold increase/decrease relative to wild-type/control.

[2] = molecular target: T2, PI3K (Homo sapiens, UniProt P48736); assay: as above; type: cell-based, Mouse; conditions: co-transfected βARKct cDNA; isoproterenol 2 min
T2 construct: expressed in transfected cells; host or cells: NIH-3T3
Protocol: as §1, §2, §3

[3] = Catalytic (lipid kinase) activity of PI3K mutant; type: biochemical; conditions: compared with wild type PI3K
From the text: PI3KΔHEAT was constructed using 2 PCR reactions that selectively amplified regions of PI3K upstream and downstream from the HEAT domain (FIG. 8a). The region of PI3K upstream from HEAT was amplified using the forward primer (5′-[…]-3′) containing a BamHI site and Kozak consensus sequence, and the reverse primer (5′-[…]-3′) containing a SacI site. The region of PI3K downstream of the HEAT domain was amplified using the forward primer (5′-[…]-3′) containing a SacI site and the reverse primer (5′-[…]-3′) containing a BamHI site and a consensus stop codon. The upstream and downstream regions of PI3K were separately subcloned in the zero-blunt TOPO vector and sequence was verified by dideoxy sequencing. Following digestion with the restriction enzymes BamHI/SacI, a three fragment ligation was carried with the mammalian expression vector pRK5, to generate the plasmid containing the PI3KΔHEAT cDNA (FIG. 8a). […] The plasmids containing cDNAs encoding βARK1, FLAG-β2AR, HA-β2AR and p110γ have been described previously.

[4] = molecular target: T3, βARK1 (Bos taurus, UniProt P21146); assay: Co-immunoprecipitation and GST pull-down with purified βARK1; type: binding; conditions: immunoprecipitated FLAG-HEAT or PI3KΔHEAT-HA
T3 construct: gift from Dr. Robert Lefkowitz
T3 sequence (P21146 1-689): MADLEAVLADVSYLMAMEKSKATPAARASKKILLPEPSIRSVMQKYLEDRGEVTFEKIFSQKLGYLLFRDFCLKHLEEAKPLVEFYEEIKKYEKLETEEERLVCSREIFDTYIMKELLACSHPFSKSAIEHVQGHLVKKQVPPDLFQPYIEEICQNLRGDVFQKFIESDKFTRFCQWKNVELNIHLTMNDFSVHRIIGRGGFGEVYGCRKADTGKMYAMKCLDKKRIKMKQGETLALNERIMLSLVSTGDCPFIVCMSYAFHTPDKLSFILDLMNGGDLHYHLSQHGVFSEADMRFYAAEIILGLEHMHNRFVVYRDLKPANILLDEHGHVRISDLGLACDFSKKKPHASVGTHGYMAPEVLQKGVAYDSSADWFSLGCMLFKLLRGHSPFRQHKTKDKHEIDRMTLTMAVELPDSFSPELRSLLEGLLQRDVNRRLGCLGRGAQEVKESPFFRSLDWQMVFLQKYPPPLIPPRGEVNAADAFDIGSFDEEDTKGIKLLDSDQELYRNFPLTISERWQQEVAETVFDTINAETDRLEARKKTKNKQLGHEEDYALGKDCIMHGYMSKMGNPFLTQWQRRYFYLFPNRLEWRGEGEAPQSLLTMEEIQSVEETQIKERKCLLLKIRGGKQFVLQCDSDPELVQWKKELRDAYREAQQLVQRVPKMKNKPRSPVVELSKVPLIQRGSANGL
Protocol: GST Fusion Protein Expression and Pull-down Experiments—Plasmid DNAs were transformed in Escherichia coli BL21 cells. Overnight cultures were grown in LB medium supplemented with ampicillin (100 μg/ml), diluted to an A600 of 0.2 in the same medium and grown for another 1 hr at 37° C. Cultured cells were then induced with 0.1 mM isopropyl-1-thio-β-D-galactopyranoside for 2 hr. Cell were then pelleted, washed once with 1× phosphate-buffered saline and resuspended in 1× phosphate-buffered saline containing 1 mM phenylmethylsulfonyl fluoride, 2 mg/ml lysozyme and incubated for 15 min on ice. Cells were lysed by adding Triton X-100 1%. Solublized cells were incubated with DNase (300 units) for 15 min on ice and centrifuged at 13,000 rpm for 10 min.
Glutathione-Sepharose beads were added to the supernatant and gently agitated at 4° C. for 2 hr. Beads were washed three times with ice cold 1×PBS containing 1% Triton X-100 followed by three washes with cold PBS without detergent. Protein concentration was determined using a DC protein assay kit (Bio Rad), and the integrity of the fusion protein was analyzed by SDS-polyacrylamide gel electrophoresis and Coomassie staining.
The beads were spun and washed three times with binding buffer followed by three washes with binding buffer without detergent. The beads were resuspended in SDS gel loading buffer and resolved by gel electrophoresis, immunblotting and detection was carried out described later.
FLAG-HEAT and PI3KΔHEAT proteins were immunoprecipitated from cell extracts using monoclonal FLAG and HA antibodies respectively, fractionated by SDS-PAGE and analyzed by immunoblotting with βARK1 monoclonal antibody. […] Levels of expression of HEAT and PI3KΔHEAT proteins were similar (FIG. 8B, lower panel).
To investigate whether there was a direct physical interaction between the HEAT domain of PI3K and βARK1, GST-HEAT fusion protein containing 535-732 amino acid residues of PI3Kγ was produced, which including the entire HEAT domain and flanking upstream 10 amino acids and downstream 7 amino acids. […]

[5] = molecular target: T4, βARK1/PI3K interaction (Bos taurus, UniProt P21146); assay: βARK1 associated PI3K activity in HEK 293 cells co-transfected with HEAT or PI3KΔHEAT; type: cell-based; conditions: 4 μg cDNA co-transfected with βARK1
T4 construct: recognizes both full length βARK1 and the βARKct; expressed in transfected cells; host or cells: HEK 293
T4 sequence (P21146 1-689): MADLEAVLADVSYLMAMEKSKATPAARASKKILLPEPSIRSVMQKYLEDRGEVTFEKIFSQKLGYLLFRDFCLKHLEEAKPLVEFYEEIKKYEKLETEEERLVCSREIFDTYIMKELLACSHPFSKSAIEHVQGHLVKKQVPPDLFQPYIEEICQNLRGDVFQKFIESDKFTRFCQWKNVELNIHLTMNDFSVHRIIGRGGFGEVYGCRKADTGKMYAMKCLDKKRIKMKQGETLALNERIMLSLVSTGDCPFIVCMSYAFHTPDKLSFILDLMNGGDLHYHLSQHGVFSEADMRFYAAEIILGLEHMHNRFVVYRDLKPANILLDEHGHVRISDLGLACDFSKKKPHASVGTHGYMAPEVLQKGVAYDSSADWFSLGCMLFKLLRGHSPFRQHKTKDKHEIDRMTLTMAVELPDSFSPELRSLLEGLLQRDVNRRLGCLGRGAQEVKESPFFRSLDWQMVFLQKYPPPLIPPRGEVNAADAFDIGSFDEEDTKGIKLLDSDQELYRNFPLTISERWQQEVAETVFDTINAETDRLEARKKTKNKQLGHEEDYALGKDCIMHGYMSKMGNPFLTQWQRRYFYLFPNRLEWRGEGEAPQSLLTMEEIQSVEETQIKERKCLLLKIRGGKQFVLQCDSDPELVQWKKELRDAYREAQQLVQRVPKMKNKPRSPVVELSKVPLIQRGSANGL
Protocol: The present inventors determined that overexpression of the 197 amino acid HEAT domain of PI3K competed for endogenous PI3K binding to βARK1 in living cells. HEK 293 cells were co-transfected with plasmids containing the βARK1 cDNA (2 μg) and increasing concentrations of the HEAT domain cDNA (ranging from 0 to 6 μg). […] The maximal reduction of βARK1 associated PI3K activity occurred when cells were co-transfected with 4 μg of HEAT cDNA (FIG. 9B). Summary results of n=5 experiments. *, p<0.0005. The data was normalized to βARK1 associated PI3K activity in cells transfected with βARK1 only. Furthermore, FLAG tagged HEAT protein co-immunoprecipitated with βARK1 monoclonal antibodies in the co-transfected HEK 293 cells.
The absence of the HEAT domain in an otherwise intact PI3K molecule affected the association of βARK1 with endogenous PI3K in cells. HEK 293 cells were co-transfected with plasmids containing cDNAs for βARK1 (2 μg), βARK1 plus HEAT (4 μg), and βARK1 plus PI3KΔHEAT (4 μg). Cell lysates were immunoprecipitated with a βARK1 monoclonal antibody and assayed for the associated PI3K activity. Expression of PI3KΔHEAT had no effect on the endogenous βARK1/PI3K interaction, whereas overexpression of HEAT abolished this interaction (FIGS. 9C and 9D). […] The data was normalized to βARK1 associated PI3K activity in cells transfected with βARK1 only.
Cytosolic and membrane fractions were prepared and analyzed for βARK1 associated PI3K activity. […] Membrane fractions were prepared from the HEK293 cells co-transfected with the βARK1 (2 μg), βARK1 and HEAT domain (4 μg) containing plasmids.

T2 sequence (P48736 with tags, fused parts or gaps DEL30-30/Q459R): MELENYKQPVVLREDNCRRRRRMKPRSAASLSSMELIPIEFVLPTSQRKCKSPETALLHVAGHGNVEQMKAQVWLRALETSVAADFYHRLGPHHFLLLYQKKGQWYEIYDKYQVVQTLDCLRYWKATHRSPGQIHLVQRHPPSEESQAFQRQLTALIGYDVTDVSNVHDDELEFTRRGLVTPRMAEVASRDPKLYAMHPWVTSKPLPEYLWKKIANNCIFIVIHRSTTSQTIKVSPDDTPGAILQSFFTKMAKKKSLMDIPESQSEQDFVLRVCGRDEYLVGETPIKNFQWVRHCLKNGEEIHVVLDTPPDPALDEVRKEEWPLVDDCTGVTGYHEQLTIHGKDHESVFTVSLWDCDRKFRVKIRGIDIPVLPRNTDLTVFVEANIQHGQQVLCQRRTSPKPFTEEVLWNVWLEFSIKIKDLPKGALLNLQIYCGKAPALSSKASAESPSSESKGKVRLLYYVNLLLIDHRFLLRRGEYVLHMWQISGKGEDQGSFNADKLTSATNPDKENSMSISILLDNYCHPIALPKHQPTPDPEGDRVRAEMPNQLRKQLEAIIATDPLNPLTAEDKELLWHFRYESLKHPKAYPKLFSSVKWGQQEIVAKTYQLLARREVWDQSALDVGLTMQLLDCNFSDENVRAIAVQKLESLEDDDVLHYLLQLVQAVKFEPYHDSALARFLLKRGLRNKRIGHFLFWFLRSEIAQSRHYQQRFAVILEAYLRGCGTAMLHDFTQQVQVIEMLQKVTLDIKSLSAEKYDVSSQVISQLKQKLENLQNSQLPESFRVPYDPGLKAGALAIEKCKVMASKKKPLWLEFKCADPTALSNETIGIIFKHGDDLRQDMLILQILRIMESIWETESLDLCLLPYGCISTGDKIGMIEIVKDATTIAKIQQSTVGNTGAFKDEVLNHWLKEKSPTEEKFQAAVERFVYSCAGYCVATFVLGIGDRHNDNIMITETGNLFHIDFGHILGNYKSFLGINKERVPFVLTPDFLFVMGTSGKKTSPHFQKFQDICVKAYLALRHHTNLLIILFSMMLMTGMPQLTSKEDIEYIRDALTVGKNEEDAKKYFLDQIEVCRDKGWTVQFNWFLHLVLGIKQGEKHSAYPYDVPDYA
T1 sequence (P48736 with tags, fused parts or gaps DEL30-30/Q459R): as above

Molecule	βARK1 associated PI3K activity in the cytosolic fraction [1]	agonist-dependent translocation of βARK1 associated PI3K activity to the membrane [2]	catalytic activity [3]	association with purified βARK1 (immune complexes from HEK 293 extracts) [4]	endogenous βARK1/PI3K interaction [5]
B1	loss	abolished	–	–	–
B2	–	–	indistinguishable from wild type PI3K	not	no effect
